Our source for the Kd values is doi:10.1101/2025.10.28.685015 (bioRxiv, 2025).

As usually defined, the Kd is a measure of binding affinity in units of concentration.

No end group written: not given here.

In this test the target is T1, biotinylated ALFA-tag peptide (WT) (synthetic construct, also: biotin with double DoA linker, end not given here).
T1 chain: SRLEEELRRRLTE
The test can be described thus: BLI. On the technique in general: BLI is a label-free optical method that tracks binding on a fibre tip over time.

B1: ALFA nanobody (NbALFA) (VHH)
VHH: EVQLQESGGGLVQPGGSLRLSCTASGVTISALNAMAMGWYRQAPGERRVMVAAVSERGNAMYRESVQGRFTVTRDFTNKMVSLQMDNLKPEDTAVYYCHVLEDRVDSFHDYWGQGTQVTVSS
B1 registered a Kd of 0.165 ± 0.002 nM.
